# According to article PMC9861184:
# Test system: T1, SigW (ECF sigma factor, GST fusion) (Pseudomonas donghuensis HYS), ORF:b11b1795
# T1 sequence: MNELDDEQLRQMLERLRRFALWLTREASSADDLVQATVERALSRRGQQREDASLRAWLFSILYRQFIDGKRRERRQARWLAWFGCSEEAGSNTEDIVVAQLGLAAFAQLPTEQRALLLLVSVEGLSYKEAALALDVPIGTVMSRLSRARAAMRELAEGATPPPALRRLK
# Experiment: EMSA
# Settings: EMSA: 0.3 uM DNA in 20 uL, 10 mM Tris-HCl pH 7.5, 150 mM NaCl, 2 mM DTT, 2 mM EDTA, 10% glycerol, 30 C 40 min; 6.8% native PAGE in 0.5x TBE on ice, EB stain
row,Sequence,binding
1,CCCTACCGTATTTGAACGGCTGGCCAGCCCTCTGTGTCCTTGCACGCCCTTGAGTTAGGGCCTGCATGCCCCATTTGCGGGCAGAGAACACTGCCGGTTCAAAGACATTCAGGGAAAAACCTCCAGGATCGGAGCCCCGTGGTCTGGCTGGCAGTCTTTCTCACAAATGCGATCAGGTAAATTCTGGAGTCATTCGTGAAACAAGCTCAACTTCCGCGCAAGATACCCACACAAGCCCGCTCGAGG (double strand) [orf12 promoter],binds
2,CGAACTCATGGCCTGCCCCCGGGAACGGGCGCAGGGGCACGGTAAAACAGGTACAGGCGCATGGCTTCAGAACTCCGGGTAATTGAGGTACCCGGCAAGTCTATGGAGGCCGATTACTGACGAAAACTGACATATTCGCAGCTTTATGCTGCATGAGACGCAACTATACGATCAGGTATATATAAGCGCTCAAAAGCATC (double strand) [orf2-orf5 promoter],binds more weakly
3,GCCCGCGTATTTCCTGAGCTCAACCTGAGCAATCACGCAGCGCCGCACTCGGTTATTTGAATGCGAGTAGCCATAGCACGGCAACTTGCCTAGGATAAGAAACAAATTGAAACGTTGTTAAAAGTGACAACTACCCGCTCAACGATGTTTCAACTTTCTTGCAATCTTCAGCCCCACAAATCAATAAAAGGACGTTCACGATGAGCAACAAGGGTTTTGACACCG (double strand) [orf9-orf6 promoter],binds
4,TCAATGGCGATCAGTACCGAGCTGTACATGGTGACGGGACCCATTCTGAATACAAAGAGCAGGCATTCTTGAAAAAGCGTGCGGCCGGGTAAATGGTGCGCGGTGCAATGACTAGTTGCGCAGAATGCAAGGGCTGGAAAACCTGCAGAAACTGGTAAGATTGCAGCGGATTCACTGAAATACATGAATGGATGCTTACCATGCACTTTCCGGATA (double strand) [orf1 promoter],binds
